This test has as its target 3CLpro (chymotrypsin-like cysteine protease, nsp5) of SARS-CoV-2, wild type (SARS-CoV-2). Description: SEC. Background: SEC sorts molecules by how far they enter the pores of the column.

This is an account of results in PMC8616692.

As a reminder, the stoichiometry N is the number of molecules, sites or subunits per partner or assembly.

On to “3CLpro (chymotrypsin-like cysteine protease, nsp5) of SARS-CoV-2, wild type (enzyme)”, for which the stoichiometry N worked out at 2.
